Drawing on patent US20150266977A1 (AbbVie / Abbott, published 2015), this text covers Kd, koff and kon for nine molecules.

Experiment in all cases: SPR
Assay [1] has as its target T1, recombinant human sclerostin (human, UniProt Q9BQB4 24-213).
T1 construct: biotinylated in the ELISAs; also called hu sclerostin; hu scl
T1 sequence: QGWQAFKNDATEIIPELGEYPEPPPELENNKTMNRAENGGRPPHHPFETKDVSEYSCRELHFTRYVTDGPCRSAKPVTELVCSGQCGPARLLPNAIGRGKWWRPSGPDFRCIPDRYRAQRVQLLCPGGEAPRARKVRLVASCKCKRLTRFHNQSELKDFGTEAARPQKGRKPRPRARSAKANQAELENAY
How it is done:
(§1) The binding of antibodies or anti-sclerostin-TNF DVD to purified recombinant human, cynomolgus monkey (cyno), rat and mouse sclerostin and TNFα was determined by surface plasmon resonance-based measurements with a Biacore T100 or T200 instruments (GE Healthcare Life Sciences, Piscataway, N.J., USA) using running HBS-EP+ (10 mM HEPES [pH 7.4], 150 mM NaCl, 3 mM EDTA, and 0.005% surfactant P20) containing additional 150 mM NaCl, and/or 10 mg/ml carboxymethyl dextran, 0.1 mg/ml BSA at 25° C. All chemicals were obtained from GE Healthcare Life Sciences, Piscataway, N.J., USA or otherwise from a different source as described in the text. Approximately 10,000 RU (or 3000 RU when CM3 chip was used) of goat anti-mouse or anti-human IgG (Fcγ) fragment specific polyclonal antibody (Pierce Biotechnology Inc, Rockford, Ill.) diluted in 10 mM sodium acetate (pH 4.5) was directly immobilized across a CM5 (or CM3) research grade biosensor chip using a standard amine coupling kit according to manufacturer's instructions and procedures at 15 μg/ml. Unreacted moieties on the biosensor surface were blocked with ethanolamine. Modified carboxymethyl dextran surface in flowcells 2, 3 and 4 were used as a reaction surface. Modified carboxymethyl dextran in flow cell 1 was used as the reference surface. Biaevaluation T100 software version 2.0.2, GE Healthcare Life Sciences was used to simultaneously fit association and dissociation phases of all injections (using 1:1 fit analysis with local Rmax). Purified antibodies were diluted in running buffer for capture across goat anti-mouse or anti-human IgG specific reaction surfaces. Antibodies to be captured as a ligand (1 μg/ml) were injected over reaction matrices at a flow rate of 10 μl/minute. The association and dissociation rate constants, kon (unit M-1 s-1) and koff (unit s-1) were determined under a continuous flow rate of 50 μl/minute. […] At the end of each cycle the surfaces were regenerated with 10 s injection of 50 mM NaOH or/and by 10 s injection of 10 mM Glycine pH1.5 at a flow rate of 100 μl/min.

Assay [2] has as its target T2, recombinant cynomolgus monkey sclerostin (cynomolgus monkey).
T2 construct: also called cyno sclerostin; Cyno sclerostin
How it is done:
as §1

Assay [3] deals with T3, recombinant mouse sclerostin (mouse, UniProt Q99P68 24-211).
T3 construct: also called ms sclerostin; murine sclerostin
T3 sequence (looked up): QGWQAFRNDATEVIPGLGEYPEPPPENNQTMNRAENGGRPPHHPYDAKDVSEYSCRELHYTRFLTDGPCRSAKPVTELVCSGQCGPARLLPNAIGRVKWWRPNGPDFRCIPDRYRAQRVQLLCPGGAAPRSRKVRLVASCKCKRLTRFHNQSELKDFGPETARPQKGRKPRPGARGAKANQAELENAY
On the procedure:
as §1

Assay [4] concerns the target T4, recombinant rat sclerostin (rat, UniProt Q99P67 24-213, limits assumed).
T4 sequence (looked up): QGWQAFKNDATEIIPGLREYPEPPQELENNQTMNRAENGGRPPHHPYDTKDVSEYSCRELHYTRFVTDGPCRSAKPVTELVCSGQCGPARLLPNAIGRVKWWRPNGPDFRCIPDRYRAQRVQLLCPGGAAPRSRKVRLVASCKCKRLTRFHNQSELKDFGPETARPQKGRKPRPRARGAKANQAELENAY
On the procedure:
as §1

A value given as a limit tells only on which side of the number the result lay.

B1: MAK195-21-GS-AE10-6 AM3 (bispecific antibody, human IgG1, lambda, L234A L235A)
heavy: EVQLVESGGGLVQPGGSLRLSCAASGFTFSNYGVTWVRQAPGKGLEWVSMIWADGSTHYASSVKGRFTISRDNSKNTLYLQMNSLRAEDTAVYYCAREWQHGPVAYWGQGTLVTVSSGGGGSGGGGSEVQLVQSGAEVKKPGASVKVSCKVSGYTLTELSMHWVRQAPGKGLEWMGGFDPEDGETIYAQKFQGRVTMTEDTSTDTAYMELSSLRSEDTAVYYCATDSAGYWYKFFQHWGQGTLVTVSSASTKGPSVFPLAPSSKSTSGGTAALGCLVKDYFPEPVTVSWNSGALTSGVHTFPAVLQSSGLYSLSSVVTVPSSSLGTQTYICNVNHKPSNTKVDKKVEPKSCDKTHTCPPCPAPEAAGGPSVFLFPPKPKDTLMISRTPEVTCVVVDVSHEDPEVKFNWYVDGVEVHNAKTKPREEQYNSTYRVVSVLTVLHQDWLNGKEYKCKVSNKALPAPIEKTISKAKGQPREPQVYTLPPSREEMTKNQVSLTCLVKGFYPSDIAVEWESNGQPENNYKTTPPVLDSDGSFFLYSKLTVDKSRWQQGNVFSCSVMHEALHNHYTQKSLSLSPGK
light: DIQMTQSPSSLSASVGDRVTITCRASQLVSSAVAWYQQKPGKAPKLLIYWASARHTGVPSRFSGSGSGTDFTLTISSLQPEDFATYYCQQHYKTPFTFGQGTKLEIKGGSGGGGSGQAVVTQEPSLTVSPGGTVTLTCGSSTGAVTIDHYPYWFQQKPGQAPRTLISDTDDKHSWTPARFSGSLLGGKAALTLSGAQPEDEAEYYCLLDYGGTFVFGGGTKLTVLGQPKAAPSVTLFPPSSEELQANKATLVCLISDFYPGAVTVAWKADSSPVKAGVETTTPSKQSNNKYAASSYLSLTPEQWKSHRSYSCQVTHEGSTVEKTVAPTECS
notes: DVD-Ig: outer MAK195-21, inner AE10-6 AM3; heavy chain row is printed MAK195-1-GS-AE10-6 AM3; also called MAK195-1-GS-AE10-6 AM3
In the case of B1, in assay [1], the Kd is 8.2 pM, the koff is 1.7e-05 s⁻¹ and the kon worked out at 2.1e+06 M⁻¹ s⁻¹.

B2: MAK195-21-GS-AE10-6 AM7 (bispecific antibody, human IgG1, lambda, L234A L235A)
heavy: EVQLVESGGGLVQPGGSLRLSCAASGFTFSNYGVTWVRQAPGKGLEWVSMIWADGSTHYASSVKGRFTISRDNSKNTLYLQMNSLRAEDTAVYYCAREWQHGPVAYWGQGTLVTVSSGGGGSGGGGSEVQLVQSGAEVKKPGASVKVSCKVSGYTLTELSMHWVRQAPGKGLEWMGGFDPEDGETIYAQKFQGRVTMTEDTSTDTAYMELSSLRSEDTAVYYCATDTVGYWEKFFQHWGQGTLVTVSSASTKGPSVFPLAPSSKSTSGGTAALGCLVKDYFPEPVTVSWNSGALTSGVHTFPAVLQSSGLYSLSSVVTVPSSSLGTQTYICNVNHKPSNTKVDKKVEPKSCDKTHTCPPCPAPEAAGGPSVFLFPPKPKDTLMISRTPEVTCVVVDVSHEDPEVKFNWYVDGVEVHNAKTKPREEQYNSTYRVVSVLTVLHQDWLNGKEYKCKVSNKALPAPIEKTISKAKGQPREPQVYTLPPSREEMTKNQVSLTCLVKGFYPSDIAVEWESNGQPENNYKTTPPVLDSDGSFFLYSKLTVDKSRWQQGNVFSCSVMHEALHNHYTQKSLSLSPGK
light: DIQMTQSPSSLSASVGDRVTITCRASQLVSSAVAWYQQKPGKAPKLLIYWASARHTGVPSRFSGSGSGTDFTLTISSLQPEDFATYYCQQHYKTPFTFGQGTKLEIKGGSGGGGSGQAVVTQEPSLTVSPGGTVTLTCGSSTGTVTIDHYPYWFQQKPGQAPRTLISDTDDKHSWTPARFSGSLLGGKAALTLSGAQPEDEAEYYCLLDYGGRFVFGGGTKLTVLGQPKAAPSVTLFPPSSEELQANKATLVCLISDFYPGAVTVAWKADSSPVKAGVETTTPSKQSNNKYAASSYLSLTPEQWKSHRSYSCQVTHEGSTVEKTVAPTECS
notes: DVD-Ig: outer MAK195-21, inner AE10-6 AM7
Take B2: in assay [1], the Kd stood at 10 pM, the koff turned out to be 2e-05 s⁻¹ and the kon came to 2e+06 M⁻¹ s⁻¹.

B3: MAK195-21-GS-AE10-6 AM8 (bispecific antibody, human IgG1, lambda, L234A L235A)
heavy: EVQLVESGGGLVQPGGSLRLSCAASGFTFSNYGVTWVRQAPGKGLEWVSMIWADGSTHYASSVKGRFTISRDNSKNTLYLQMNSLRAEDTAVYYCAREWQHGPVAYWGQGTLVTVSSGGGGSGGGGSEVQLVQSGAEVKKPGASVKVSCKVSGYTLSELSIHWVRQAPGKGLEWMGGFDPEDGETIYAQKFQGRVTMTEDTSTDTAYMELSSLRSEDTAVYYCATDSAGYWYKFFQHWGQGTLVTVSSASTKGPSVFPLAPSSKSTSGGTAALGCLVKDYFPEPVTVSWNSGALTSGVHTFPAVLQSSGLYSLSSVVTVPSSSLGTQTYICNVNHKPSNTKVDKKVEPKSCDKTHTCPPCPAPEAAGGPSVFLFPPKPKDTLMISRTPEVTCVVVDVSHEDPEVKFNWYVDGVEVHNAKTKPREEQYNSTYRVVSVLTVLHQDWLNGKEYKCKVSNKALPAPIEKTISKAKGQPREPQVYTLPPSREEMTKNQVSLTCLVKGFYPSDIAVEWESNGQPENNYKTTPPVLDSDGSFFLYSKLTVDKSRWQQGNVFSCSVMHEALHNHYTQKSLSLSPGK
light: DIQMTQSPSSLSASVGDRVTITCRASQLVSSAVAWYQQKPGKAPKLLIYWASARHTGVPSRFSGSGSGTDFTLTISSLQPEDFATYYCQQHYKTPFTFGQGTKLEIKGGSGGGGSGQAVVTQEPSLTVSPGGTVTLTCGSSTGAVTIDHYPYWFQQKPGQAPRTLISDTDDKHSWTPARFSGSLLGGKAALTLSGAQPEDEAEYYCLLDYGGSFVFGGGTKLTVLGQPKAAPSVTLFPPSSEELQANKATLVCLISDFYPGAVTVAWKADSSPVKAGVETTTPSKQSNNKYAASSYLSLTPEQWKSHRSYSCQVTHEGSTVEKTVAPTECS
notes: DVD-Ig: outer MAK195-21, inner AE10-6 AM8
Turning to B3, in assay [1], the Kd was 3.6 pM, the koff came out at 7.9e-06 s⁻¹ and the kon turned out to be 2.2e+06 M⁻¹ s⁻¹.

B4: MAK195-21-SS-AE10-6 AM7 (bispecific antibody, human IgG1, lambda, L234A L235A)
heavy: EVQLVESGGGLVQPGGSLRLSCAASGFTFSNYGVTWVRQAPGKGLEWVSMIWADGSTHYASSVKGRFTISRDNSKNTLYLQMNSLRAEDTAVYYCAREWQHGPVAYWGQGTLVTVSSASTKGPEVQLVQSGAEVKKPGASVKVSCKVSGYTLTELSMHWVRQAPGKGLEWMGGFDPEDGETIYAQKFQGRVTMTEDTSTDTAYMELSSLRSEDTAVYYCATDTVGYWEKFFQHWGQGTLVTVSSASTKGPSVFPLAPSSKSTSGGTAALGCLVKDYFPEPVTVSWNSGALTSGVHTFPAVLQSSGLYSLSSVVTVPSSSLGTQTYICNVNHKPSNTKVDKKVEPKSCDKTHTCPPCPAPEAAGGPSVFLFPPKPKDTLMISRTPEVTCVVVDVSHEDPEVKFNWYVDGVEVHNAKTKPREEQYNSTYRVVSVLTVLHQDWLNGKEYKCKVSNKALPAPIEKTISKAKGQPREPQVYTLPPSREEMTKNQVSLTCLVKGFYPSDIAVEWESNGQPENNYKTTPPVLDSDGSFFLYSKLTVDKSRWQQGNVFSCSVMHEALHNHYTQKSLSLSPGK
light: DIQMTQSPSSLSASVGDRVTITCRASQLVSSAVAWYQQKPGKAPKLLIYWASARHTGVPSRFSGSGSGTDFTLTISSLQPEDFATYYCQQHYKTPFTFGQGTKLEIKRTVAAPQAVVTQEPSLTVSPGGTVTLTCGSSTGTVTIDHYPYWFQQKPGQAPRTLISDTDDKHSWTPARFSGSLLGGKAALTLSGAQPEDEAEYYCLLDYGGRFVFGGGTKLTVLGQPKAAPSVTLFPPSSEELQANKATLVCLISDFYPGAVTVAWKADSSPVKAGVETTTPSKQSNNKYAASSYLSLTPEQWKSHRSYSCQVTHEGSTVEKTVAPTECS
notes: as for B2
For B4, in assay [1], the Kd was below 1.5 pM, the koff was below 1e-06 s⁻¹ and the kon stood at 680000 M⁻¹ s⁻¹.

B5: AE10-6-AM3 (antibody, V domains shown)
VH: EVQLVQSGAEVKKPGASVKVSCKVSGYTLTELSMHWVRQAPGKGLEWMGGFDPEDGETIYAQKFQGRVTMTEDTSTDTAYMELSSLRSEDTAVYYCATDSAGYWYKFFQHWGQGTLVTVSS
VL: QAVVTQEPSLTVSPGGTVTLTCGSSTGAVTIDHYPYWFQQKPGQAPRTLISDTDDKHSWTPARFSGSLLGGKAALTLSGAQPEDEAEYYCLLDYGGTFVFGGGTKLTVL
notes: converted into IgG
On to B5, for which the Kd in assay [1] was found to be 0.54 pM; in assay [2], 0.24 pM; in assay [3], 0.0055 nM; in assay [4], 0.01 nM. Besides, the koff in assay [1] came out at 3.8e-06 s⁻¹; in assay [2] it was 1.6e-06 s⁻¹; in assay [3], 5.5e-05 s⁻¹; in assay [4], 1.9e-05 s⁻¹. Besides, the kon in assay [1] was determined as 7e+06 M⁻¹ s⁻¹; in assay [2], 6.9e+06 M⁻¹ s⁻¹; in assay [3] it was 1e+07 M⁻¹ s⁻¹; in assay [4], 1.9e+06 M⁻¹ s⁻¹.

B6: AE10-6-AM5 (antibody, V domains shown)
VH: EVQLVQSGAEVKKPGASVKVSCKVSGYTLSELSMHWVRQAPGKGLEWMGGFDPEGGETIYAQKFQGRVTMTEDTSTDTAYMELSSLRSEDTAVYYCATDAGGYWYKFFQHWGQGTLVTVSS
VL: QAVVTQEPSLTVSPGGTVTLTCGSSTGTVTIDHYPYWFQQKPGQAPRTLISDTDDKHSWTPARFSGSLLGGKAALTLSGAQPEDEAEYYCLLFYGGTVVFGGGTKLTVL
notes: converted into IgG
As to B6, the Kd in assay [1] is 3 pM; in assay [2] it was 1.5 pM; in assay [3], 0.016 nM; in assay [4] it was 0.056 nM. The koff in assay [1] was 1.3e-05 s⁻¹; in assay [2] it was 7.6e-06 s⁻¹; in assay [3] it was 0.00011 s⁻¹; in assay [4], 7.5e-05 s⁻¹. The kon in assay [1] came out at 4.3e+06 M⁻¹ s⁻¹; in assay [2], 5.2e+06 M⁻¹ s⁻¹; in assay [3], 7e+06 M⁻¹ s⁻¹; in assay [4], 1.3e+06 M⁻¹ s⁻¹.

B7: AE10-6-AM2 (antibody, V domains shown)
VH: EVQLVQSGAEVKKPGASVKVSCKVSGYTLTELSMHWVRQAPGKGLEWMGGFDPEAGETIYAQKFQGRVTMTEDTSTDTAYMELSSLRSEDTAVYYCATDGELYWYKFFQHWGQGTLVTVSS
VL: QAVVTQEPSLTVSPGGTVTLTCGSSTGAVTIWHYPYWFQQKPGQAPRTLISDTNDKHSWTPARFSGSLLGGKAALTLSGAQPEDEAEYYCLLDYGGSFVFGGGTKLTVL
notes: converted into IgG; also called rHC + LC S4 clone 102
In the case of B7, the Kd in assay [1] came out at 8.1 pM; in assay [2], 7.1 pM; in assay [3] it was 0.094 nM; in assay [4] it was 0.12 nM. Also, the koff in assay [1] was 2.7e-05 s⁻¹; in assay [2] it was 2.6e-05 s⁻¹; in assay [3], 0.002 s⁻¹; in assay [4], 0.00088 s⁻¹. Moreover, the kon in assay [1] worked out at 3.4e+06 M⁻¹ s⁻¹; in assay [2], 3.6e+06 M⁻¹ s⁻¹; in assay [3] it was 2.1e+07 M⁻¹ s⁻¹; in assay [4] it was 7.6e+06 M⁻¹ s⁻¹.

B8: DVD2657 (bispecific antibody, human IgG1, kappa, L234A L235A)
heavy: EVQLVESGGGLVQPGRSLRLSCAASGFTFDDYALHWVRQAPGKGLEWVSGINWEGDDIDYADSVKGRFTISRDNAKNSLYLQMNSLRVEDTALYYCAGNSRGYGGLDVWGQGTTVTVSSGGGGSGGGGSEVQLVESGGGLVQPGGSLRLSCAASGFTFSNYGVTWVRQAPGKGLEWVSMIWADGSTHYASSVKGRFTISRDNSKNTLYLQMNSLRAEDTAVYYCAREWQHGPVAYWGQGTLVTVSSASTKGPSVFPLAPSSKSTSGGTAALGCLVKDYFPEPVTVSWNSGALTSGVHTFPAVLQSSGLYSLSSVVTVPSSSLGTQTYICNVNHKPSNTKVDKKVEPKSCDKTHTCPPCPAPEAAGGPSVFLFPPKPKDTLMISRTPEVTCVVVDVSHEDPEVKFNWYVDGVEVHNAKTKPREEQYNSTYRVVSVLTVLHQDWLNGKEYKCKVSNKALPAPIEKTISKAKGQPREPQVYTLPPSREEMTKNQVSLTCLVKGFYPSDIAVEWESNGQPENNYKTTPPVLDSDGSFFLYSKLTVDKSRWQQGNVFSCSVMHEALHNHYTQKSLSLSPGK
light: QSVLTQPPSASGTPGQRVTISCSGSSSNIGRNTVNWYQQLPGTAPKLLIYSNNQRPSGVPDRFSGSKSGTSASLAISGLQSEDEADYYCAAWDDNLESYVFGGGTKLTVLGGGSGGGGSGDIQMTQSPSSLSASVGDRVTITCRASQLVSSAVAWYQQKPGKAPKLLIYWASARHTGVPSRFSGSGSGTDFTLTISSLQPEDFATYYCQQHYKTPFTFGQGTKLEIKRTVAAPSVFIFPPSDEQLKSGTASVVCLLNNFYPREAKVQWKVDNALQSGNSQESVTEQDSKDSTYSLSSTLTLSKADYEKHKVYACEVTHQGLSSPVTKSFNRGEC
notes: DVD-Ig: outer MSL10-AM1.2, inner AB436
Turning to B8, in assay [1], the Kd came out at 17 pM, the koff was determined as 4.9e-06 s⁻¹ and the kon was found to be 280000 M⁻¹ s⁻¹. Moreover, in assay [2], the Kd was determined as 130 pM, the koff amounted to 5e-05 s⁻¹ and the kon came to 390000 M⁻¹ s⁻¹.

B9: DVD2658 (bispecific antibody, human IgG1, kappa, L234A L235A)
heavy: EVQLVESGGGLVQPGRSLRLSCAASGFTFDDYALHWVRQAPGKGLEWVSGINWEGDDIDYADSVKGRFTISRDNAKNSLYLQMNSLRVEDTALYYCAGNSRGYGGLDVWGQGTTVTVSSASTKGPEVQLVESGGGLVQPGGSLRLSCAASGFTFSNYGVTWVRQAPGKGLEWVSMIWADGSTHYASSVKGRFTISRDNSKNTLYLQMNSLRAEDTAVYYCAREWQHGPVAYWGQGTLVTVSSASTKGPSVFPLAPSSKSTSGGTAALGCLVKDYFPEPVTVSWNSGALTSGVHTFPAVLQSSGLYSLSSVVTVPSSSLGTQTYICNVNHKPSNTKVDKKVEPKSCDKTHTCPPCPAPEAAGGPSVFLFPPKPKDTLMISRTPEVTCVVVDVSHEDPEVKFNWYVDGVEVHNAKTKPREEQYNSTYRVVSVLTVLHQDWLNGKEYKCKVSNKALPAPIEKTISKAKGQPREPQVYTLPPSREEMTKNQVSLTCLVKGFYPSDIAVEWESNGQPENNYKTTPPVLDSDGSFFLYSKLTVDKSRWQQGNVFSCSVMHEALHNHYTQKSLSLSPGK
light: QSVLTQPPSASGTPGQRVTISCSGSSSNIGRNTVNWYQQLPGTAPKLLIYSNNQRPSGVPDRFSGSKSGTSASLAISGLQSEDEADYYCAAWDDNLESYVFGGGTKLTVLGQPKAAPDIQMTQSPSSLSASVGDRVTITCRASQLVSSAVAWYQQKPGKAPKLLIYWASARHTGVPSRFSGSGSGTDFTLTISSLQPEDFATYYCQQHYKTPFTFGQGTKLEIKRTVAAPSVFIFPPSDEQLKSGTASVVCLLNNFYPREAKVQWKVDNALQSGNSQESVTEQDSKDSTYSLSSTLTLSKADYEKHKVYACEVTHQGLSSPVTKSFNRGEC
notes: as for B8
As for B9, in assay [1], the Kd was below 3.7 pM, the koff was below 1e-06 s⁻¹ and the kon worked out at 270000 M⁻¹ s⁻¹. Further, in assay [2], the Kd came out at 61 pM, the koff turned out to be 3e-05 s⁻¹ and the kon was found to be 500000 M⁻¹ s⁻¹.
